# Experimental data: patent US20060105953
# Tested on: UbG-DsRx
substance,measurement,value
caspase-3,red fluorescence (DsRed) in live transgenic zebrafish embryos,A control embryo (FIG. 1b) injected with a construct where the linker does not contain a cleavage site doesn't express any detectable red fluorescence (FIG. 1c)
